Where no end group is shown, it is not given here.
Tests used:
[1] = Residence time in blood of HA-GLP-1 mutant conjugate (Test Example 5); format: in vivo, rat
Protocol: The HA-GLP-1 mutant conjugate solution obtained in Example 15-2 was diluted with PBS that contained 0.05% Tween 80 (pH 7.4; hereinafter also referred to as “solvent Z”), and the thus diluted solution was then administered at a dosage of 50 μg/kg into the vein of a rat as a single dose. Thereafter, 1, 4, 8, 24, 48, 72, 96, and 168 hours after the administration, the blood was collected (heparin treatment). The blood was then centrifuged, so as to obtain plasma. This plasma sample was cryopreserved at −20° C. or less until measurement was carried out.
Thereafter, they were analyzed using a microplate reader. Conditions for measurement are described below:
Microplate reader: SPECTRA MAX GEMINI (manufactured by Molecular Devices)
Detection: Fluorescence (EX: 355 nm, EM: 460 nm)
The HA-GLP-1 mutant conjugate solution obtained in Example 15-2 was diluted with solvent Z and Assay Buffer included with kit W, so as to prepare standard solutions having concentrations of 12.8, 6.4, 3.2, 1.6, 0.8, 0.4, 0.2, 0.1 μg/ml and 0 μg/ml. Thereafter, 5 μl of normal rat plasma was added to this standard solution, so as to prepare a sample used for calibration curve.
Assay Buffer included with kit W was added to the HA-GLP-1 mutant conjugate-administered rat plasma sample, so as to prepare a measurement sample.
The concentration of the HA-GLP-1 mutant conjugate in plasma was calculated based on the calibration curve obtained from the fluorescence intensity of each standard sample using analysis software SOFTmax PRO (manufactured by Molecular Devices).
With regard to data of a change in the concentration in blood of the administered HA-GLP-1 mutant conjugate, pharmacokinetic parameters were calculated using WinNonlin Ver 4.0.1 (manufactured by Pharsight). With regard to a change in the concentration in plasma of each individual, model-independent analysis was carried out, so as to calculate the mean residence time in blood (MRT). The half-life (t1/2) was calculated using the data of the final 3 measurable points of each individual.

[2] = test system: BKS.Cg-+Lepr^db/+Lepr^db/Jcl mouse; test: Oral sugar tolerance test; format: in vivo; details: for Hypoglycemic ratio: mean value
Protocol: 8-week-old male BKS.Cg-+Lepr^db/+Lepr^db/Jcl mouse (manufactured by CLEA Japan, Inc.) was subjected to fasting overnight. Thereafter, the HA-GLP-1 mutant conjugate solution obtained in Example 15-2 that had been diluted with solvent Z (peptide amount: 1.5 μg/kg, 15 μg/kg, or 150 μg/kg) or solvent Z was intravenously administered to the above […]. 1 minute after the intravenous administration, a 50% glucose solution (Otsuka Pharmaceutical Co., Ltd.) was orally administered at a dosage of 3 g/kg. […]
The blood was collected from the tail portion before administration of glucose (value at hour 0), and 0.5, 1, 2, and 4 hours after the administration of glucose. Thereafter, the blood glucose level was measured by the enzyme method (hexokinase method, Autosera S GLU (Daiichi Pure Chemical Co., Ltd.; equipment name: BioMajesty JCA-BM1250 (JEOL Ltd.)).
The blood glucose level was calculated by the following hypoglycemic ratio: […]
The mean value and standard deviation of each group were calculated from the calculated hypoglycemic ratio.

[3] = intravenously administered to a rat
[4] = rat vein, 50 μg/kg single dose, mean value

Substance: HA-GLP-1 mutant conjugate: GLP-1 mutant (Gly at position 8, Cys at position 37) bound to HA-AM-MI/SUC; 3.7 GLP-1 mutant/HA (mol/mol) (HGEGTFTSDVSSYLEGQAAKEFIAWLVKGRC; also: bound to modified hyaluronic acid HA-AM-MI/SUC, 3.7 peptide per HA, attachment site not given here; UniProt P01275 98-128, looked up, variant A8G G37C)
- MRT [1, 3]: 30.2 h
- half-life [1, 3]: 23.6 h
- Distribution volume [1, 4]: 53.4 mL/kg
- Mean residence time in blood [1, 4]: 30.2 h
- Total clearance [1, 4]: 1.8 mL/h/kg
- half-life [1, 4]: 23.6 h
- hypoglycemic action compared with GLP-1 (Human, 7-37) ([2]; oral sugar tolerance test): significantly increased
- Hypoglycemic ratio ([2]; peptide amount 1.5 μg/kg intravenous 1 minute before oral glucose 3 g/kg): 3.0%
- Hypoglycemic ratio ([2]; peptide amount 15 μg/kg intravenous 1 minute before oral glucose 3 g/kg): 60.1%
- Hypoglycemic ratio ([2]; peptide amount 150 μg/kg intravenous 1 minute before oral glucose 3 g/kg): 120.3%

From US9394379B2, “Process for producing water-soluble hyaluronic acid modification” (Chugai Seiyaku Kabushiki Kaisha, priority 2004, dated 2016)
